Earlier results in publication PMC9871243.

Tests used:
[1] = system: Influenza A virus virion (cited work), hemagglutinin (Influenza A virus); conditions: modifications in the cited assays not stated, PBS, pH and binding temperature not stated
[2] = system: Influenza A virus hemagglutinin (cited work) (Influenza A virus); conditions: modifications in the cited assays not stated, PBS, pH and binding temperature not stated

TTGGGTTATTTTGGGAGGGCGGGGGTT [RHA0385 (as in cited works)]
Kd [1]: 0.0011 nM | Kd [2]: 0.6 nM
